Variants at the floor of the assay were thinned out.
What was measured:
biotinyl-Phe-oxazolone = assay: self-aminoacylation, catalytic enhancement (BFO) (fold over background); higher = more active; k-Seq, kA / k0A0; sequences stand for … in GGGAAUGGAUCCACAUCUACGAAUUC…UUCACUGCAGACUUGACGAAGCUG
In short: (§1)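 Working in 50 μL HEPES/NaCl/KCl/MgCl2/CaCl2 buffer with 5% acetonitrile at pH 6.9–7.0, mutagenized RNA pools (0.43 μM; 21-nt variable region) were reacted with 2–1250 μM of each biotinyl-aminoacyl-oxazolone for 90 minutes at room temperature. Streptavidin capture followed, with quantification by triplicate qPCR and Illumina sequencing. Catalytic enhancement is reported as median kA over the uncatalyzed rate, the low-activity peak of a bimodal Gaussian fit to the data.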

biotinyl-Ile-oxazolone = assay: self-aminoacylation, catalytic enhancement (BIO) (fold over background); higher = more active; k-Seq, kA / k0A0; sequences stand for … in GGGAAUGGAUCCACAUCUACGAAUUC…UUCACUGCAGACUUGACGAAGCUG
In short: as §1

biotinyl-Met-oxazolone = assay: self-aminoacylation, catalytic enhancement (BMO) (fold over background); higher = more active; k-Seq, kA / k0A0; sequences stand for … in GGGAAUGGAUCCACAUCUACGAAUUC…UUCACUGCAGACUUGACGAAGCUG
In short: as §1

biotinyl-Val-oxazolone = assay: self-aminoacylation, catalytic enhancement (BVO) (fold over background); higher = more active; k-Seq, kA / k0A0; sequences stand for … in GGGAAUGGAUCCACAUCUACGAAUUC…UUCACUGCAGACUUGACGAAGCUG
In short: as §1

biotinyl-Leu-oxazolone = assay: self-aminoacylation, catalytic enhancement (BLO) (fold over background); higher = more active; k-Seq, kA / k0A0; sequences stand for … in GGGAAUGGAUCCACAUCUACGAAUUC…UUCACUGCAGACUUGACGAAGCUG
In short: as §1

biotinyl-Trp-oxazolone = assay: self-aminoacylation, catalytic enhancement (BWO) (fold over background); higher = more active; k-Seq, kA / k0A0; sequences stand for … in GGGAAUGGAUCCACAUCUACGAAUUC…UUCACUGCAGACUUGACGAAGCUG
In short: as §1

Sequence	self-aminoacylation (biotinyl-Phe-oxazolone)	self-aminoacylation (biotinyl-Ile-oxazolone)	self-aminoacylation (biotinyl-Met-oxazolone)	self-aminoacylation (biotinyl-Val-oxazolone)	self-aminoacylation (biotinyl-Leu-oxazolone)	self-aminoacylation (biotinyl-Trp-oxazolone)
CUACUUCAUAGAAUCGGUCUG [Fam1A.1 aminoacylation ribozyme variant]	0.644	0.783	0.75	0.749	0.837	0.698
CUACUUCCAACAAUCGGUGUG [Fam1A.1 aminoacylation ribozyme variant]	0.789	0.97	1.06	1.03	1.28	1.09
CUACUUCCAACAGUCGGUCUG [Fam1A.1 aminoacylation ribozyme variant]	0.496	0.911	1.06	0.851	0.971	0.76
CUACUUCCAACAUUCGGUCUG [Fam1A.1 aminoacylation ribozyme variant]	1.68	1.17	1.07	1.39	1.54	1.16
CUACUUCCAGCAAUCGGUCUG [Fam1A.1 aminoacylation ribozyme variant]	0.605	0.87	0.77	0.961	1.04	0.458
CUACUUCGAACAACCGGUCUG [Fam1A.1 aminoacylation ribozyme variant]	0.394	0.822	0.734	1.21	0.836	0.949
CUACUUCGAACAAUCGGCCUG [Fam1A.1 aminoacylation ribozyme variant]	4.78	1.6	1.71	1.54	1.36	1.84
CUACUUCGAACAAUCGGUGUG [Fam1A.1 aminoacylation ribozyme variant]	0.861	1.03	1.13	0.999	1.26	1.25
CUACUUCGAACAAUCGUUCUG [Fam1A.1 aminoacylation ribozyme variant]	0.268	0.432	0.453	0.49	0.457	0.368
CUACUUCGAACAAUCUGUCUG [Fam1A.1 aminoacylation ribozyme variant]	0.413	0.539	0.51	0.576	0.576	0.337
CUACUUCGAACCAUCGGUCUG [Fam1A.1 aminoacylation ribozyme variant]	0.458	0.723	0.813	0.779	0.61	0.463
CUACUUCUAACAAUCGGUCGG [Fam1A.1 aminoacylation ribozyme variant]	0.725	0.843	0.626	0.728	0.978	0.653
CUACUUCUAACAAUGGGUCUG [Fam1A.1 aminoacylation ribozyme variant]	0.582	0.833	0.718	0.705	0.697	0.566
CUACUUGAAACAAUCGGUCUG [Fam1A.1 aminoacylation ribozyme variant]	0.652	0.766	0.788	0.779	0.707	0.631
CUACUUGAAACAAUCGUUCUG [Fam1A.1 aminoacylation ribozyme variant]	0.5	0.635	0.614	0.561	0.645	0.379
CUACUUGAAACAAUGGGUCUG [Fam1A.1 aminoacylation ribozyme variant]	0.694	1.3	1.65	1.13	1.13	1.61
CUACUUUAAAAAAUCGGUCUG [Fam1A.1 aminoacylation ribozyme variant]	0.887	1.01	0.987	0.87	0.744	0.72
CUACUUUAGACAAUCGGUCUG [Fam1A.1 aminoacylation ribozyme variant]	0.65	0.77	0.847	0.826	0.7	0.518
CUAGUACAAACAAUCGGUCUG [Fam1A.1 aminoacylation ribozyme variant]	0.781	0.837	0.725	0.775	0.802	0.572
CUAGUUAAAACAAUCGGUCUG [Fam1A.1 aminoacylation ribozyme variant]	0.675	0.795	0.958	0.679	0.801	0.622
CUAGUUCAAACAAUCCGUCUG [Fam1A.1 aminoacylation ribozyme variant]	0.796	0.861	0.885	0.895	0.89	0.713
